Laboratory results as given in PMC5929103.

Columns and labels:
Assay in all cases: enzyme inhibition kinetics
[1] = target: human cationic trypsin, active (human)
[2] = target: human anionic trypsin, active (human) (UniProt P07478)
[3] = target: human mesotrypsin, active (human) (UniProt P35030)
Chain of UniProt P35030 (P35030 81-304): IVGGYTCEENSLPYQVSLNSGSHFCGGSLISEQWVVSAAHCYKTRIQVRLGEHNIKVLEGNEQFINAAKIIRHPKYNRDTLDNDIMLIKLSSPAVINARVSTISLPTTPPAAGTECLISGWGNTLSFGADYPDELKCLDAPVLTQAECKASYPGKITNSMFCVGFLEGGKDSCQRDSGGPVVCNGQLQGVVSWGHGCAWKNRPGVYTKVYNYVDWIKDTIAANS

Chain of UniProt P07478 (P07478 24-247): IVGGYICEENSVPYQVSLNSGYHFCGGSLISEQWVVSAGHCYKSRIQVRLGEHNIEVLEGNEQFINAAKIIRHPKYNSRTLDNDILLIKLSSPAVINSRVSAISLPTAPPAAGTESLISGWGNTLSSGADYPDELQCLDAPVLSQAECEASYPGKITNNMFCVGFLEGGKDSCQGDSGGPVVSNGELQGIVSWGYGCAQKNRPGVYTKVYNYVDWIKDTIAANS

| Substance | Ki [1] | Ki [2] | Ki [3] |
| --- | --- | --- | --- |
| APPI_(M17G/I18F/F34V), soluble form (designed binder) | 23 pM | – | – |
| APPI_(P13W/M17G/I18F/F34V), soluble form (designed binder) | 19 pM | 3.8 pM | 69 pM |
| wild-type amyloid β-protein precursor Kunitz protease inhibitor domain (APPI) (from UniProt P05067 289-344) (domain or fragment) | 4.1 pM | – | – |
